Experimental data from patent US20220251152A1, “COMPOSITIONS AND METHODS FOR SELECTIVE PROTEIN DEGRADATION” (Novartis AG, priority 2019, published 2022).

B1: 773 (protein)
chain: MALPVTALLLPLALLLHAARPRSSLAHKRSHTGERPFQCNQCGASFTQKGNLLRHIKLHTGEKPFKCHLCNTASAEARHIKAEMGGTGAEDPRPSRKRRSLGDVGEIVMTQSPATLSLSPGERATLSCRASQDISKYLNWYQQKPGQAPRLLIYHTSRLHSGIPARFSGSGSGTDYTLTISSLQPEDFAVYFCQQGNTLPYTFGQGTKLEIKGGGGSGGGGSGGGGSQVQLQESGPGLVKPSETLSLTCTVSGVSLPDYGVSWIRQPPGKGLEWIGVIWGSETTYYQSSLKSRVTISKDNSKNQVSLKLSSVTAADTAVYYCAKHYYYGGSYAMDYWGQGTLVTVSSTTTPAPRPPTPAPTIASQPLSLRPEACRPAAGGAVHTRGLDFACDIYIWAPLAGTCGVLLLSLVITLYCKRGRKKLLYIFKQPFMRPVQTTQEEDGCSCRFPEEEEGGCELRVKFSRSADAPAYQQGQNQLYNELNLGRREEYDVLDKRRGRDPEMGGKPRRKNPQEGLYNELQKDKMAEAYSEIGMKGERRRGKGHDGLYQGLSTATKDTYDALHMQALPPR
B2: 6761 (protein)
chain: MALPVTALLLPLALLLHAARPEIVMTQSPATLSLSPGERATLSCRASQDISKYLNWYQQKPGQAPRLLIYHTSRLHSGIPARFSGSGSGTDYTLTISSLQPEDFAVYFCQQGNTLPYTFGQGTKLEIKGGGGSGGGGSGGGGSQVQLQESGPGLVKPSETLSLTCTVSGVSLPDYGVSWIRQPPGKGLEWIGVIWGSETTYYQSSLKSRVTISKDNSKNQVSLKLSSVTAADTAVYYCAKHYYYGGSYAMDYWGQGTLVTVSSTTTPAPRPPTPAPTIASQPLSLRPEACRPAAGGAVHTRGLDFACDIYIWAPLAGTCGVLLLSLVITLYCKRGRKKLLYIFKQPFMRPVQTTQEEDGCSCRFPEEEEGGCELRVKFSRSADAPAYQQGQNQLYNELNLGRREEYDVLDKRRGRDPEMGGKPRRKNPQEGLYNELQKDKMAEAYSEIGMKGERRRGKGHDGLYQGLSTATKDTYDALHMQALPPRKGGGSKGGGTKGGGSKMHKRSHTGERPFQCNQCGASFTQKGNLLRHIKLHTGEKPFKCHLCNTASAEARHIKAEMGGKPIPNPLLGLDST
B3: 774 (protein)
chain: MALPVTALLLPLALLLHAARPHKRSHTGERPFQCNQCGASFTQKGNLLRHIKLHTGEKPFKCHLCNTASAEARHIKAEMGGTGAEDPRPSRKRRSLGDVGEIVMTQSPATLSLSPGERATLSCRASQDISKYLNWYQQKPGQAPRLLIYHTSRLHSGIPARFSGSGSGTDYTLTISSLQPEDFAVYFCQQGNTLPYTFGQGTKLEIKGGGGSGGGGSGGGGSQVQLQESGPGLVKPSETLSLTCTVSGVSLPDYGVSWIRQPPGKGLEWIGVIWGSETTYYQSSLKSRVTISKDNSKNQVSLKLSSVTAADTAVYYCAKHYYYGGSYAMDYWGQGTLVTVSSTTTPAPRPPTPAPTIASQPLSLRPEACRPAAGGAVHTRGLDFACDIYIWAPLAGTCGVLLLSLVITLYCKRGRKKLLYIFKQPFMRPVQTTQEEDGCSCRFPEEEEGGCELRVKFSRSADAPAYQQGQNQLYNELNLGRREEYDVLDKRRGRDPEMGGKPRRKNPQEGLYNELQKDKMAEAYSEIGMKGERRRGKGHDGLYQGLSTATKDTYDALHMQALPPR

What follows are molecules tested on CAR19 fused to HilD tag and/or FurON (assay: Flow cytometry of surface CAR expression on JNL cells, 10 μM lenalidomide and/or bazedoxifene 24 hours). Conditions: surface CAR on transduced JNL cells, 10 μM lenalidomide, 24 hours.
Type: cell-based, human
Text: Next, the surface expression of CAR19 on stably transduced JNL cells was examined by flow cytometry. […] On Day 2, cells were harvested, stained using biotinylated-protein L (Genscript, M00097) followed by PE conjugated streptavidin (Jackson Lab, 016-110-084), and subjected to flow cytometry analysis using Fortessa instrument.

| Molecule | % reduction in CAR expression | Effect of lenalidomide |
| --- | --- | --- |
| B1 | 4% | No |
| B2 | 77% | Yes |
| B3 | 5% | No |

Same assay, conditions: surface CAR on transduced JNL cells, flow cytometry; FurON constructs only in presence of bazedoxifene

| Molecule | CAR Expression |
| --- | --- |
| B1 | Yes |
| B2 | Yes |
| B3 | Yes |
